Data: the supplement of paper PMC10567573

B1: C10orf62 (parent)
chain: RALEEVEMKLQKNFLTQRENTIAG
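Also: lentivirally expressed fusions sorted by FACS into six bins by GFP to DsRed ratio, PSI derived from sequencing read proportions per bin multiplied by bin number.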

Variants of: B1
Assay: protein stability index of a GFP-peptide fusion (GPS, HEK-293T) (PSI 1-6); higher = more stable
Conditions: c terminus: a fixed tail appended
With RALEEVEMKLQKNFLTQMENTIAG the protein stability index was 3.12.
RALEEVEMKLQKNFLTQAENTIAG showed a protein stability index of 3.19.
In the case of RALEEVEMKLQKNFLTQGENTIAG, the protein stability index is reported as 3.73.
In the case of RALEEVEMKLQKNFLTQVENTIAG, the protein stability index is reported as 2.35.
Variant RALEEVEMKLQKNFLTQDENTIAG has a protein stability index of 4.59.
Work on RALEEVEMKLQKNFLTQKENTIAG yielded a protein stability index of 3.74.
For RALEEVEMKLQKNFLTQYENTIAG, the protein stability index was 2.64.
With RALEEVEMKLQKNFLTQNENTIAG the protein stability index was 4.05.
RALEEVEMKLQKNFLTQFENTIAG showed a protein stability index of 2.53.
Variant RALEEVEMKLQKNFLTQHENTIAG has a protein stability index of 3.96.
Work on RALEEVEMKLQKNFLTQCENTIAG yielded a protein stability index of 2.91.
RALEEVEMKLQKNFLTQIENTIAG gave a protein stability index of 3.09.
Variant RALEEVEMKLQKNFLTQQENTIAG has a protein stability index of 3.85.
RALEEVEMKLQKNFLTQEENTIAG gave a protein stability index of 4.29.
RALEEVEMKLQKNFLTQLENTIAG gave a protein stability index of 2.08.
RALEEVEMKLQKNFLTQTENTIAG showed a protein stability index of 3.46.
For RALEEVEMKLQKNFLTQPENTIAG, the protein stability index was 3.72.
For RALEEVEMKLQKNFLTQWENTIAG, the protein stability index was 2.47.
For RALEEVEMKLQKNFLTQSENTIAG, the protein stability index was 4.18.
Work on RALEEVEMKLKKNFLTQRENTIAG yielded a protein stability index of 3.31.
In the case of RALEEVEMKLYKNFLTQRENTIAG, the protein stability index is reported as 2.78.
RALEEVEMKLPKNFLTQRENTIAG gave a protein stability index of 3.9.
With RALEEVEMKLMKNFLTQRENTIAG the protein stability index was 2.64.
For RALEEVEMKLTKNFLTQRENTIAG, the protein stability index was 3.73.
Variant RALEEVEMKLVKNFLTQRENTIAG has a protein stability index of 2.82.
RALEEVEMKLWKNFLTQRENTIAG showed a protein stability index of 1.98.
Work on RALEEVEMKLNKNFLTQRENTIAG yielded a protein stability index of 3.51.
RALEEVEMKLLKNFLTQRENTIAG showed a protein stability index of 2.28.
Work on RALEEVEMKLRKNFLTQRENTIAG yielded a protein stability index of 3.71.
In the case of RALEEVEMKLSKNFLTQRENTIAG, the protein stability index is reported as 3.48.
Variant RALEEVEMKLIKNFLTQRENTIAG has a protein stability index of 2.13.
With RALEEVEMKLQKNFLTPRENTIAG the protein stability index was 3.69.
RALEEVEMKLQKNFLTTRENTIAG showed a protein stability index of 3.2.
Variant RALEEVEMKLQKNFLTDRENTIAG has a protein stability index of 4.13.
Variant RALEEVEMKLQKNFLTVRENTIAG has a protein stability index of 3.06.
With RALEEVEMKLQKNFLTKRENTIAG the protein stability index was 3.5.
RALEEVEMKLQKNFLTNRENTIAG showed a protein stability index of 3.89.
RALEEVEMKLQKNFLTHRENTIAG showed a protein stability index of 3.31.
With RALEEVEMKLQKNFLTCRENTIAG the protein stability index was 3.21.
Work on RALEEVEMKLQKNFLTYRENTIAG yielded a protein stability index of 2.48.
Variant RALEEVEMKLQKNFLTRRENTIAG has a protein stability index of 2.74.
Variant RALEEVEMKLQKNFLTARENTIAG has a protein stability index of 3.42.
For RALEEVEMKLQKNFLTSRENTIAG, the protein stability index was 3.85.
In the case of RALEEVEMKLQKNFLTGRENTIAG, the protein stability index is reported as 3.73.
Variant RALEEVEMKLQKNFLTLRENTIAG has a protein stability index of 3.03.
RALEEVEMKLQKNFLTMRENTIAG showed a protein stability index of 3.56.
In the case of RALEEVEMKLQKNFLTIRENTIAG, the protein stability index is reported as 2.89.
RALEEVEMKLQKNFLTERENTIAG gave a protein stability index of 3.96.
In the case of RALEEVEMKLQKNFLTFRENTIAG, the protein stability index is reported as 2.13.
RALEEVEMKLQKNFLTWRENTIAG showed a protein stability index of 2.92.
For RALEEVEMKLQKNFLTQRENFIAG, the protein stability index was 2.86.
In the case of RALEEVEMKLQKNFLTQRENEIAG, the protein stability index is reported as 4.16.
Variant RALEEVEMKLQKNFLTQRENGIAG has a protein stability index of 3.23.
RALEEVEMKLQKNFLTQRENDIAG gave a protein stability index of 3.92.
Variant RALEEVEMKLQKNFLTQRENCIAG has a protein stability index of 3.73.
For RALEEVEMKLQKNFLTQRENAIAG, the protein stability index was 3.56.
RALEEVEMKLQQNFLTQRENTIAG showed a protein stability index of 3.72.
Work on RALEEVEMKLQDNFLTQRENTIAG yielded a protein stability index of 4.03.
RALEEVEMKLQPNFLTQRENTIAG showed a protein stability index of 4.14.
Work on RALEEVEMKLQCNFLTQRENTIAG yielded a protein stability index of 3.3.
For RALEEVEMKLQGNFLTQRENTIAG, the protein stability index was 3.77.
With RALEEVEMKLQWNFLTQRENTIAG the protein stability index was 1.94.
Variant RALEEVEMKLQRNFLTQRENTIAG has a protein stability index of 3.31.
Variant RALEEVEMKLQLNFLTQRENTIAG has a protein stability index of 2.67.
RALEEVEMKLQTNFLTQRENTIAG showed a protein stability index of 4.2.
RALEEVEMKLQINFLTQRENTIAG showed a protein stability index of 2.15.
RALEEVEMKLQHNFLTQRENTIAG showed a protein stability index of 3.43.
For RALEEVEMKLQSNFLTQRENTIAG, the protein stability index was 2.77.
Work on RALEEVEMKLQNNFLTQRENTIAG yielded a protein stability index of 4.44.
RALEEVEMKLQANFLTQRENTIAG gave a protein stability index of 3.77.
Work on RALEEVEMKLQFNFLTQRENTIAG yielded a protein stability index of 2.
Work on RALEEVEMKLQMNFLTQRENTIAG yielded a protein stability index of 2.86.
With RALEEVEMKLQENFLTQRENTIAG the protein stability index was 4.05.
RALEEVEMKLQVNFLTQRENTIAG showed a protein stability index of 2.31.
RALEEVEMKLQYNFLTQRENTIAG showed a protein stability index of 2.3.
In the case of RALEEVEMKLQKNFLDQRENTIAG, the protein stability index is reported as 4.09.
Work on RALEEVEMKLQKNFLIQRENTIAG yielded a protein stability index of 3.06.
In the case of RALEEVEMKLQKNFLNQRENTIAG, the protein stability index is reported as 2.83.
RALEEVEMKLQKNFLAQRENTIAG showed a protein stability index of 2.98.
Work on RALEEVEMKLQKNFLWQRENTIAG yielded a protein stability index of 2.97.
With RALEEVEMKLQKNFLFQRENTIAG the protein stability index was 3.26.
RALEEVEMKLQKNFLLQRENTIAG showed a protein stability index of 2.79.
RALEEVEMKLQKNFLCQRENTIAG showed a protein stability index of 3.24.
Variant RALEEVEMKLQKNFLYQRENTIAG has a protein stability index of 2.74.
With RALEEVEMKLQKNFLQQRENTIAG the protein stability index was 3.45.
With RALEEVEMKLQKNFLVQRENTIAG the protein stability index was 3.16.
Variant RALEEVEMKLQKNFLKQRENTIAG has a protein stability index of 3.54.
RALEEVEMKLQKNFLPQRENTIAG showed a protein stability index of 3.09.
For RALEEVEMKLQKNFLHQRENTIAG, the protein stability index was 3.44.
In the case of RALEEVEMKLQKNFLMQRENTIAG, the protein stability index is reported as 3.23.
For RALEEVEMKLQKNFLEQRENTIAG, the protein stability index was 3.91.
Work on RALEEVEMKLQKNFLGQRENTIAG yielded a protein stability index of 4.06.
Work on RALEEVEMKLQKNFLSQRENTIAG yielded a protein stability index of 3.64.
In the case of RALEEVEMKLQKNFLRQRENTIAG, the protein stability index is reported as 2.81.
